Measured values as given in article PMC13136903, “Zα and Zβ domains of ADAR1 and ZBP1 bind G-quadruplexes with nanomolar affinities, establishing Zβ as a G-quadruplex-specific domain”.

How the values were obtained:
[1] = system: GV2 Zα (giant virus Zα domain) (giant virus (metagenome)); test: MST; conditions: 20 mM NaPi pH 6.4, 100 mM KCl, 1 mM DTT, 0.5 mM EDTA (LiCl replaces KCl where noted); ITC 35 C; MST 25 C with 20 nM protein (labelling without DTT; competition …)
ADAR1 Zα [2] = biological target: T1, ADAR1 Zα (Homo sapiens, UniProt P55265 139-202); test: NMR; 100 µM RNA; CSPs similar to ssUUAGGG; 20 mM NaPi pH 6.4, 100 mM KCl, 1 mM DTT, 0.5 mM EDTA (LiCl replaces KCl where noted); ITC 35 C; MST 25 C with 20 nM protein (labelling without DTT); competition; conditions: protein: recombinant; tags: N-terminal 6xHis, thrombin site, T7 tag; chain copies: 2
T1 sequence: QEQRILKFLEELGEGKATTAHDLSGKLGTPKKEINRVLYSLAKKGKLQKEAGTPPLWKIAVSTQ

ADAR1 Zβ [3] = biological target: T2, ADAR1 Zβ (Homo sapiens, UniProt P55265 291-366); test: NMR; 100 µM RNA; large CSP increase; 20 mM NaPi pH 6.4, 100 mM KCl, 1 mM DTT, 0.5 mM EDTA (LiCl replaces KCl where noted); ITC 35 C; MST 25 C with 20 nM protein (labelling without DTT); competition; conditions: protein: recombinant; tags: N-terminal 6xHis, thrombin site, T7 tag
T2 sequence: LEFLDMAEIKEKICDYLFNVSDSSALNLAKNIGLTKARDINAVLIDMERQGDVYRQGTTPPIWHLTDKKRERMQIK

ADAR1 Zβ [4] = biological target: T2, ADAR1 Zβ; test: MST; ligand-depletion range, may not be exact; 20 mM NaPi pH 6.4, 100 mM KCl, 1 mM DTT, 0.5 mM EDTA (LiCl replaces KCl where noted); ITC 35 C; MST 25 C with 20 nM protein (labelling without DTT); competition; conditions: protein: recombinant; tags: N-terminal 6xHis, thrombin site, T7 tag; parallel G4
ADAR1 Zα [5] = biological target: T1, ADAR1 Zα; test: MST; 20 mM NaPi pH 6.4, 100 mM KCl, 1 mM DTT, 0.5 mM EDTA (LiCl replaces KCl where noted); ITC 35 C; MST 25 C with 20 nM protein (labelling without DTT); competition; conditions: protein: recombinant, tags: N-terminal 6xHis, thrombin site, T7 tag
ADAR1 Zα [6] = biological target: T1, ADAR1 Zα; test: NMR; extensive peak shifts; 20 mM NaPi pH 6.4, 100 mM KCl, 1 mM DTT, 0.5 mM EDTA (LiCl replaces KCl where noted); ITC 35 C; MST 25 C with 20 nM protein (labelling without DTT); competition; conditions: protein: recombinant; tags: N-terminal 6xHis, thrombin site, T7 tag; no G4; transient structure
ADAR1 Zα [7] = biological target: T1, ADAR1 Zα; test: ITC; 35 C; N=1.44; 20 mM NaPi pH 6.4, 100 mM KCl, 1 mM DTT, 0.5 mM EDTA (LiCl replaces KCl where noted); ITC 35 C; MST 25 C with 20 nM protein (labelling without DTT); competition; conditions: protein: recombinant; tags: N-terminal 6xHis, thrombin site, T7 tag; chain copies: 2; parallel G4
ADAR1 Zβ [8] = biological target: T2, ADAR1 Zβ; test: ITC; 35 C; N=1.12; 20 mM NaPi pH 6.4, 100 mM KCl, 1 mM DTT, 0.5 mM EDTA (LiCl replaces KCl where noted); ITC 35 C; MST 25 C with 20 nM protein (labelling without DTT); competition; conditions: protein: recombinant; tags: N-terminal 6xHis, thrombin site, T7 tag; parallel G4
ZBP1 Zα1 = biological target: T3, ZBP1 Zα1 (Homo sapiens, UniProt Q9H171 1-70); test: NMR; significant peak disappearance; LLPS; 20 mM NaPi pH 6.4, 100 mM KCl, 1 mM DTT, 0.5 mM EDTA (LiCl replaces KCl where noted); ITC 35 C; MST 25 C with 20 nM protein (labelling without DTT); competition; conditions: protein: recombinant; tags: N-terminal 6xHis, thrombin site, T7 tag; parallel G4
T3 sequence: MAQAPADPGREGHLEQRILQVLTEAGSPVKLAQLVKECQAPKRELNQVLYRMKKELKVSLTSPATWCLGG

ADAR1 Zβ [9] = biological target: T2, ADAR1 Zβ; test: MST; 20 mM NaPi pH 6.4, 100 mM KCl, 1 mM DTT, 0.5 mM EDTA (LiCl replaces KCl where noted); ITC 35 C; MST 25 C with 20 nM protein (labelling without DTT); competition; conditions: protein: recombinant; tags: N-terminal 6xHis, thrombin site, T7 tag; parallel G4
ADAR1 Zα [10] = biological target: T1, ADAR1 Zα; test: NMR; 30 µM RNA; CSPs similar to UUACCG at 100 µM; 20 mM NaPi pH 6.4, 100 mM KCl, 1 mM DTT, 0.5 mM EDTA (LiCl replaces KCl where noted); ITC 35 C; MST 25 C with 20 nM protein (labelling without DTT); competition; conditions: protein: recombinant; tags: N-terminal 6xHis, thrombin site, T7 tag; predominantly single strand at 30 µM

GGGAGGGCGGGAGGG [ALU-GQRNA] showed a Kd [1] of 1000 nM.

B1: GQ-UUAGGG 6-mer (100 µM) (structured_RNA)
RNA: UUAGGG
B1: binds (ADAR1 Zα [2]); binds (ADAR1 Zβ [3]).

B2: TERRA-GQRNA (structured_RNA)
RNA: UUAGGGUUAGGGUUAGGGUUAGGG
B2 showed a Kd (ADAR1 Zβ [4]) of 4.2 ± 2.2 nM and a Kd (ADAR1 Zα [5]; chain copies: 2, parallel G4) of 19.3 ± 13.7 nM.

B3: TERRA-mutRNA (ssRNA)
RNA: UUACCGUUACCGUUACCGUUACCG
In the case of B3, the Kd (ADAR1 Zα [5]; no G4, transient structure) is reported as 35.9 ± 8.9 nM.

B4: ALU-mutRNA (ssRNA)
RNA: CCGACCGCCCGACCG
B4: binds (ADAR1 Zα [6]).

B5: ALU-GQRNA (structured_RNA)
RNA: GGGAGGGCGGGAGGG
With B5 the Kd (ADAR1 Zα [7]) was 430 ± 100 nM, the Kd (ADAR1 Zβ [8]) was 1810 ± 300 nM and the binding result (ZBP1 Zα1) was “binds”. It also gave a Kd (ADAR1 Zβ [9]) of 336 ± 181 nM and a Kd (ADAR1 Zα [5]; chain copies: 2, parallel G4) of 116 ± 69.3 nM.

B6: ssUUAGGG 6-mer (30 µM) (ssRNA)
RNA: UUAGGG
B6: binds (ADAR1 Zα [10]).
